Assay results published in the supplement of paper PMC10567573.

B1: ZBED1 (parent)
chain: EQVFSLGDGVSGGFFGIRDSSFL

Variants of: B1
Experiment: protein stability index of a GFP-peptide fusion (GPS, HEK-293T) (PSI 1-6); higher = more stable
Conditions: c terminus: native
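Also: lentivirally expressed fusions sorted by FACS into six bins by GFP to DsRed ratio, PSI derived from sequencing read proportions per bin multiplied by bin number.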

Protein stability index: each site, then its substitutions
G7: N 3.28 | R 2.94 | D 4.29 | E 3.84 | L 2.18 | F 1.99 | S 2.94 | K 3.16 | I 1.9 | P 3.51 | A 2.98 | M 2.52 | C 2.61 | Y 2.34 | H 3.34 | Q 3.46 | W 1.7 | T 3.23 | V 2.19
G16: Q 2.93 | T 2.77 | M 2.17 | V 1.85 | E 2.83 | W 1.76 | H 3.56 | F 1.91 | N 3.46 | D 3.77 | S 2.05 | K 3.29 | Y 2.29 | L 2.8 | C 1.84 | A 2.62 | I 1.57 | P 2.85 | R 3.14
F15: T 4.08 | K 4.1 | I 3.67 | H 4.11 | A 4.32 | Y 3.52 | R 4.13 | D 4.15 | E 3.78 | W 2.88 | G 3.85 | S 4.43 | L 3.7 | C 3.64 | P 4.25 | N 4.21 | M 3.82 | V 3.65 | Q 4.63
F4: W 3.08 | R 4.16 | N 4.11 | S 4.29 | V 3.85 | P 4.11 | Q 4.12 | T 3.75 | Y 3.47
F14: Y 3.18 | S 3.71 | Q 4.45 | C 4.21 | L 3.67 | T 4.12 | E 4.11 | V 3 | K 4.3 | A 3.82 | I 3.21 | N 4.62 | M 3.74 | G 4.44 | P 4.08 | W 3.44 | R 4 | H 4.24 | D 4.16
F22: A 4.15 | D 4.06 | C 3.39
G9: E 3.25 | I 2.47 | H 3.48 | R 2.86 | V 3.09 | Y 2.51 | K 2.99 | L 2.01 | P 3.29 | A 3.15 | N 3.46 | F 2.55 | M 2.9 | Q 3.16 | D 4 | S 3.27 | W 1.51 | T 3.1 | C 2.32
L6: C 3.76 | N 3.4 | T 3.27 | F 3.22 | M 3.2 | A 3.92 | K 3.86 | Q 3.5 | W 3.01 | G 4.31 | D 3.73 | I 3.14 | H 3.97 | R 4.26 | V 3.08 | S 4.12 | E 4.69 | Y 3.42 | P 3.96
S20: L 2.5 | T 3.22 | Y 2.96 | D 3.71 | W 2.35 | V 2.63 | G 3.22 | E 3.91 | C 1.96 | F 2.39 | Q 3.7 | N 3.7 | I 2.42 | A 3.1 | H 2.76 | M 2.49 | K 3.53 | R 3.21 | P 3.73
D19: V 2.65 | H 2.19 | R 2.78 | P 2.15 | Q 2.15 | Y 2.57 | L 2.1 | G 2.87 | N 2.75 | T 1.85 | S 1.68 | I 1.82 | A 1.3 | F 3.4 | C 2.26 | K 3.4 | E 2.92 | M 1.77
D8: V 1.57 | Y 2.01 | E 3.04 | S 3.22 | A 2.7 | H 2.73 | F 1.61 | G 3.24 | N 2.88 | Q 2.73 | C 2.07 | M 1.47 | L 1.99 | I 1.41 | W 1.91 | R 2.61 | T 2.91 | P 2.73 | K 2.69
S11: W 2.39 | L 3.09 | M 2.81 | K 3.11 | I 2 | E 4.02 | D 4.01 | N 3.63 | T 3.18 | Y 2.17 | F 2.35 | P 2.76 | Q 3.05 | C 2.48 | R 2.89 | V 2.9 | G 3.26 | H 3.15 | A 3.73
I17: W 3.52 | V 3.87 | E 4.71 | M 3.75 | N 4.02 | F 3.42 | P 4 | Q 4.31 | G 4.17 | R 4.2 | L 3.68 | A 4.37 | D 4.55 | K 3.8 | H 4.03 | Y 3.28 | T 4.3 | C 3.76 | S 4.2
R18: D 3.98 | N 3.9 | A 2.92 | T 3.32 | G 3.42 | M 2.71 | K 3.96 | H 2.62 | I 2.26 | S 3.65 | Y 2.49 | P 3.28 | F 2.07 | E 3.93 | Q 3.38 | W 2.21 | L 2.78 | C 1.98 | V 2.14
S5: F 1.75 | A 2.98 | K 3.31 | T 3.51 | N 3.96 | G 3.27 | D 3.74 | M 2.67 | P 3.2 | I 2.16 | Q 3.34 | Y 2.63 | C 2.6 | E 3.81 | V 2.44 | R 3.29 | L 2.24 | H 3.36 | W 1.83
G12: L 2.3 | D 4.06 | E 4.06 | M 2.88 | A 3.41 | H 3.01 | T 3.28 | N 3.6 | Y 2.05 | V 2.45 | C 2.49 | I 1.42 | K 3.52 | R 2.92 | Q 3.52 | S 3.55 | F 2.01 | P 3.5 | W 1.72
G13: N 3.58 | F 1.98 | M 2.2 | A 3.28 | L 2.23 | E 4.08 | H 3.41 | C 3.08 | P 3.49 | I 1.99 | D 3.73 | K 3.08 | T 3.17 | Q 3.48 | R 2.96 | W 1.82 | Y 2.04 | S 3.49 | V 2.22
S21: T 3.33 | N 3.62 | W 2.59 | C 2.77 | G 3.84 | F 2.61 | Y 2.66 | K 4.02 | D 4.08 | R 3.61 | E 3.67 | P 3.4 | H 3.46 | V 1.74 | Q 3.48 | A 3 | L 2.5 | I 2.25 | M 2.54
V10: E 3.62 | C 3.35 | N 3.8 | P 3.86 | Y 3.38 | I 2.92 | H 3.55 | W 2.61 | M 2.57 | L 3 | G 3.89 | D 3.78 | F 2.75 | R 4.32 | S 4.03 | A 3.87 | Q 3.92 | T 3.78 | K 3.6
